Experimental data published in US7361341B2, “Methods of treating cancer using antibodies that immunospecifically bind to trail receptors” (Human Genome Sciences, Inc., priority 2001, dated 2008).

Columns and labels:
Assay in all cases: Specificity phage ELISA
Type in all cases: binding
Settings in all cases: antigen coated at 1 μg/ml, absorbance at 450 nm
BLyS = BLyS (Homo sapiens, UniProt Q9Y275)
Experimental: (§1) To determine the specificity of the antibodies which bound TR4, a phage ELISA was performed against human TR4 fusion protein, and a panel of related and unrelated human antigens TR7, TR5, TR10, BlyS (described in International Patent Publication Numbers WO98/18921 and WO00/50597, which are both herein icorprated by reference in their entireties), irrelevant fusion protein and BSA.
(§2) Individual E. coli colonies containing phagemid were inoculated into 5 ml 2YTAG and incubated at 37° C. for 4 hours, shaking. M13K07 helper phage (Pharmacia) was added to each tube to an moi of 10 and incubated for […], the first 30 minutes static and the final 30 minutes with gentle shaking. Cells were pelleted by centrifugation at 3,500 rpm for 10 minutes. The phage containing supernatant (5 ml) was carefully transferred to a fresh tube, 1 ml of 6 MPBS added and then incubated at room temperature for 1 hour to pre-block the phage prior to ELISA.
(§3) Flexible 96-well plates (Falcon) were coated overnight at 4° C. with each antigen (1 μg/ml). All antigens were coated in PBS. After coating, the solutions were removed from the wells, and the plates were blocked for 1 hour at room temperature in MPBS. The plates were washed 3 times with PBS and then 50 μl of pre-blocked phage was added to each well. The plates were incubated at room temperature for 1 hour and then washed with 3 changes of PBST followed by 3 changes of PBS.
(§4) To each well, 50 μl of an anti-M13-HRP conjugate (Pharmacia) at a 1 in 5000 dilution in MPBS was added and the plates incubated at room temperature for 1 hour. Each plate was washed three times with PBST followed by three times with PBS.
(§5) Fifty μl of TMB substrate was then added to each well, and incubated at room temperature for 30 minutes or until colour development. The reaction was stopped by the addition of 25 μl of 0.5 M H2SO4. The signal generated was measured by reading the absorbance at 450 nm (A450) using a microtitre plate reader (Bio-Rad 3550).

TR10 = molecular target: T1, TR10 (Homo sapiens, UniProt Q9UBN6, L310S)
T1 sequence (Q9UBN6 56-386 L310S): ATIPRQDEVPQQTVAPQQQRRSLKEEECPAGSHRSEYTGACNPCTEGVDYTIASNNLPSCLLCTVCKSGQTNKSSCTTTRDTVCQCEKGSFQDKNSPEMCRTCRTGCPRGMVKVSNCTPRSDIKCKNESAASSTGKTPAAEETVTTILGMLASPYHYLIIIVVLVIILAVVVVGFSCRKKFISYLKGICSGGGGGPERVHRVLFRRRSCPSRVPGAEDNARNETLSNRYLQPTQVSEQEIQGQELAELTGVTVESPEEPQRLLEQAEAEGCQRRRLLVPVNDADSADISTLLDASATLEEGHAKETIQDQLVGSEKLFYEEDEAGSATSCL
Experimental: as §1, §2, §3, §4, §5

TR5 = molecular target: T2, TR5 (Homo sapiens, UniProt O14798, I229T)
T2 sequence (O14798 with tags, fused parts or gaps I229T limits assumed): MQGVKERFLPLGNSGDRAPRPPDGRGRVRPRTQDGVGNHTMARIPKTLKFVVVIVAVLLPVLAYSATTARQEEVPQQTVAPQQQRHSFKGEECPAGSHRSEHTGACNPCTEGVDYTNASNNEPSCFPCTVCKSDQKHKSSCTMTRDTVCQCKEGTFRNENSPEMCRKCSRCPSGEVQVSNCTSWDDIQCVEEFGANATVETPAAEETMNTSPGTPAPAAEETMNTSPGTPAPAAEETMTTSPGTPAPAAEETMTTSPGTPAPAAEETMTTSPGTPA
Experimental: as §1, §2, §3, §4, §5

TR7 = TR7 (Homo sapiens, UniProt O14763)
Experimental: as §1, §2, §3, §4, §5

human TR4 fusion protein = molecular target: T3, human TR4 fusion protein (Homo sapiens, UniProt O00220, H141R/R209T)
T3 construct: made in house
Experimental: as §1, §2, §3, §4, §5

[1] = tested on: irrelevant fusion protein
Experimental: as §1, §2, §3, §4, §5

Sequence of TR7 (O14763 56-411 isoform O14763-2 limits assumed): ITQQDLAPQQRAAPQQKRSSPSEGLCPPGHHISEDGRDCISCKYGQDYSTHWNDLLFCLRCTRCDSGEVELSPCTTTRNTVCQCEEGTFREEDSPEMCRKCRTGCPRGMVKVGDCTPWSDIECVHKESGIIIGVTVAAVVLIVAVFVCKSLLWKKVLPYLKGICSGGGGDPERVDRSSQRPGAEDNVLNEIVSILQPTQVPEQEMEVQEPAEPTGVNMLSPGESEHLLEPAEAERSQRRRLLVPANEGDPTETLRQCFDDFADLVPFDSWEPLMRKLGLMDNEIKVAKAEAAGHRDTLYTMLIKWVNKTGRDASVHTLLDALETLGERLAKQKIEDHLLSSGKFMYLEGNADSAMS
T3 sequence (O00220 109-240 H141R/R209T): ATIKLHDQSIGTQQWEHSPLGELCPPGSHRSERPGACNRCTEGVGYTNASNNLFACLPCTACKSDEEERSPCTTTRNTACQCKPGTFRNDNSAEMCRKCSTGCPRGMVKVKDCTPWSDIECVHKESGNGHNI
Sequence of BLyS (Q9Y275 whole entry, the tested form may be a part): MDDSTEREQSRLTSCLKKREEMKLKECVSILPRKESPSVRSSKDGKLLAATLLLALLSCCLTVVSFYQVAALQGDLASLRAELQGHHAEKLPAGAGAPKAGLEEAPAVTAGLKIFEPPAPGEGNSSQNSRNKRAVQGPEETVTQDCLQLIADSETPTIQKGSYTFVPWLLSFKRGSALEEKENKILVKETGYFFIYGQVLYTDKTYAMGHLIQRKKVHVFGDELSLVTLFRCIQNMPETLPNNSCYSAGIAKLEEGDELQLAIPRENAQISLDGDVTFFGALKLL

B1: T1014B11: scFv that immunospecifically binds TRAIL receptor TR4, protein SEQ ID NO:47 (protein)
scFv: EVQLVQSGAEVKKPGASVKVSCKISGDSFTAYFIHWLRQAPGEGLEWMGWFNPISGTAGSPQKFHGRVAMTRDTSISTAYMELTRLASDDTAIYYCARQHHSNTFDPWGQGTLVTVSSGGGGSGGGGSGGGGSAQSALTQPASVSGSPGQSITISCTGTNSDVGGYNYVSWYQQHPGKAPKLMIYEVNNRPSGVSNRFSGSKSGNTASLTISGLQADDEADYYCSSYTTSNTWVFGGGTKLTVLG
modifications: T1014B11 scFv
- binding to BLyS (BLyS): not
- binding to TR10 (TR10): not
- binding to TR5 (TR5): not
- binding to TR7 (TR7): not
- binding to TR4 (human TR4 fusion protein): bind
- binding to an irrelevant fusion protein [1]: not
